Test results from the supplement of paper PMC12764529.
± gives the half width of the 95% confidence interval.

Columns and labels:
[1] = folding stability dG unfold from chymotrypsin proteolysis; higher = more stable
Outline: (§1)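 K50 was inferred by Bayesian fitting of sequencing counts obtained after protease digestion of designed mini-proteins. Unfolding free energy was derived by comparison with a sequence-predicted unfolded-state K50 and a shared folded-state K50, for each protease or both combined. The mini-proteins were under 80 residues, had no cysteine, were carried in a PA-tagged cDNA display construct, and were kept only if AlphaFold2 dimer inter-PAE exceeded 15.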

[2] = folding stability dG unfold from trypsin proteolysis; higher = more stable
Outline: as §1

[3] = folding stability dG unfold (combined trypsin and chymotrypsin); higher = more stable
Outline: as §1

| Sequence | folding stability dG unfold [1] | folding stability dG unfold [2] | folding stability dG unfold [3] |
| --- | --- | --- | --- |
| SAGGSAGGSGSMPVTIEIEYKDPKSDKTFKKTILVPPSVTDPEAVAEEVAKELGPVEKVKITSSAGGSAGGS [r12_942_JUSTAS] | -0.44 ± 0.24 kcal/mol | 0.595 ± 0.061 kcal/mol | 0.0443 ± 0.48 kcal/mol |
| SAGGSAGGSASVVVTKETLPNGETRITTTTTTTTTVTVYDNNETVTTTTTTTTTTVVPKSLLSAGGSAGGSA [r18_34_JUSTAS] | 1.66 ± 0.039 kcal/mol | 0.601 ± 0.055 kcal/mol | 1.38 ± 0.084 kcal/mol |
| SAWIPIDSPEEAKDIAKEIADNYGLEDTKVEPMPDNYVVVKLEFEMPNENGQKRKRNITIYYDPDGKFWSAG [r14_420_TrROS] | 1.07 ± 0.083 kcal/mol | 0.973 ± 0.04 kcal/mol | 1.1 ± 0.099 kcal/mol |
| SAGGMPLGITITETVTPTPDGSVVVTLTVSLPPDEPLTITFPISGETVSFPPDETITLKVTVPPGLSSAGGS [r16_56_JUSTAS] | 0.953 ± 0.034 kcal/mol | 1.7 ± 0.09 kcal/mol | 1.4 ± 0.093 kcal/mol |
| SARIAEILRELGMEVSVENHPDGMNEITFKFPNGYKIQVHMSPNGIDVQIQPPEGERRTFSIDEIKDLLSAG [r14_578_TrROS] | 3.14 ± 0.046 kcal/mol | 2.23 ± 0.071 kcal/mol | 2.77 ± 0.081 kcal/mol |
| SAGGKTIVVPEKDVEKLLKELEKLGFKVTKVERKDGYVTVTIEVEKDGKLEKIEIRIYRPEDLDKPPSAGGS [r8_307_TrROS_Hall] | 2.28 ± 0.06 kcal/mol | 1.1 ± 0.072 kcal/mol | 2.01 ± 0.15 kcal/mol |
| SEAEAVTFPVPNPEDGELVADLAVARNPETGEWTVRLEHEDGKTVEVTFPEDEELPVDGLPPGLRATFTGSA [r9_1150_TrMRF] | -0.916 ± 0.7 kcal/mol | -0.195 ± 0.12 kcal/mol | -0.401 ± 0.13 kcal/mol |
| SAGGSPRLELTVTIPGLGLPVTVRTESVDPVRGYVTATLDFPVPGYRATLVFDPVTGRVYARVEPASAGGSA [r2_147_TrMRF] | 3.13 ± 0.062 kcal/mol | 2.34 ± 0.04 kcal/mol | 2.85 ± 0.12 kcal/mol |
| SWMLRIRNPDDGKTREIKLPNMPPTVQKDGWISITNPQFLNQLLDALPPDYKIDEVEFMPGGMHTMKVKPSA [r9_997_TrROS] | -0.067 ± 0.32 kcal/mol | 0.0269 ± 0.17 kcal/mol | 0.019 ± 0.12 kcal/mol |
| SAGGSASPFYIAYDPNKPNVATIYPSSQPNLSGSNGATVTPLTDEAELAALKAELKAAGITTITFSSAGGSA [r15_1004_JUSTAS] | 0.355 ± 0.22 kcal/mol | 0.834 ± 0.054 kcal/mol | 0.65 ± 0.11 kcal/mol |
| SAGGKEVKVIRITMSRDQLRDLIEKLFGKPLSLEEILKKLPPGAKVEIRVEENENGEVTVEIVIVKKPSAGG [r13_869_TrROS_Hall] | 4.14 ± 0.11 kcal/mol | 3.2 ± 0.23 kcal/mol | 3.99 ± 0.26 kcal/mol |
| SAGGSAGGSAGMVKSLSELLAENPDLSIEEIKAKLEKEGYKVEVKKEGDTPVVYIKKGKKSAGGSAGGSAGG [r11_707_JUSTAS] | 0.765 ± 0.14 kcal/mol | 1.43 ± 0.04 kcal/mol | 1.12 ± 0.16 kcal/mol |
| SAGNKVEIMLMVPMKPDPDGEPEIDPQMIREIAKAAGAEGRVEDVDIQPMPDYYMIRVRLPGKEIWIMSAGG [r19_398_TrROS] | 1.1 ± 0.13 kcal/mol | 1.46 ± 0.031 kcal/mol | 1.38 ± 0.11 kcal/mol |
| SAMITITLPNGTPVNVEVTVTETRASPDGTLTTTDYELTFHPPDGVPRRGKGTVLSDPATGTTTITIIESAG [r14_789_JUSTAS] | 1.45 ± 0.028 kcal/mol | 1.47 ± 0.041 kcal/mol | 1.48 ± 0.042 kcal/mol |
| SAGGPLQIKVEPLNRDPKDGKREVRIEITFPEEDMKKNPENRQLAEYIAKSLAKEPGADKVEVDIHWSAGGS [r16_416_TrROS] | 0.441 ± 0.081 kcal/mol | -0.0287 ± 0.056 kcal/mol | 0.274 ± 0.095 kcal/mol |
| SAGGSMSLEEIKKLEIELEKEEGEKLKAEVTVLPDGKLFVRVNGKLFEIDLKTGKIVEVKELPPDESAGGSA [r2_374_TrROS_Hall] | 2.38 ± 0.057 kcal/mol | 2.49 ± 0.19 kcal/mol | 2.47 ± 0.21 kcal/mol |

| Sequence | folding stability dG unfold [1] | folding stability dG unfold [2] | folding stability dG unfold [3] |
| --- | --- | --- | --- |
| SAGGSELKPGDLVVRIEIKVEVEEVRVNENGEVEVKLRVEIRIEVRPLPPPPEPSEEELLNPDGEESAGGSA [r2_495_TrROS_Hall] | 1.89 ± 0.12 kcal/mol | 2.74 ± 0.27 kcal/mol | 2.33 ± 0.27 kcal/mol |
| SAGGSAGGSAGPNMVPIGKLTIEIRNPDNGNPLRIRIDLYVVPAPDGWMIALRILDIEPPSAGGSAGGSAGG [r11_113_TrROS] | 4.15 ± 0.21 kcal/mol | 2.45 ± 0.13 kcal/mol | 3.7 ± 0.26 kcal/mol |
| SEINFKPVKVDKNGNFYVENETKPGLVEKLIEAIKELFPGVEITEIKEIPEPPKIEIKAKHPSGKEFTFGSA [r9_1164_TrMRF] | 0.789 ± 0.11 kcal/mol | 0.927 ± 0.074 kcal/mol | 0.825 ± 0.11 kcal/mol |
| SAGGSAGGSAGGPEAVIEELKKAGYTPKVDPNSSVVTVTYKNPDGTILTKTINVPPSLLSAGGSAGGSAGGS [r10_1173_JUSTAS] | 1.59 ± 0.2 kcal/mol | -0.269 ± 0.25 kcal/mol | 1.16 ± 0.26 kcal/mol |
| SAGGSAGGSAGGMEFELEDGGYVKVELELSEDGELVARVEFFNENGEPVAEIEVPLEEILSAGGSAGGSAGG [r7_660_TrMRF] | 1.76 ± 0.062 kcal/mol | 1.63 ± 0.12 kcal/mol | 1.76 ± 0.13 kcal/mol |
| SAGGSAGGSAGMKTVLSTKTEPSPEDLTVTTVTLGDKVYTIIYDPKTGKPLKVIPAGEFKSAGGSAGGSAGG [r11_851_JUSTAS] | 1.25 ± 0.093 kcal/mol | -0.0393 ± 0.1 kcal/mol | 0.857 ± 0.12 kcal/mol |
| SAGGMTFTITVTIPAKEKFYDPSKGIWRERELNRVITIPFSSSDIEKAKEEVRSKLPPDKYKITSVDSAGGS [r16_459_JUSTAS] | 1.21 ± 0.17 kcal/mol | 1.29 ± 0.04 kcal/mol | 1.19 ± 0.12 kcal/mol |
| SAMEITIEKDENGNIRITLKLDGAEIIEEKEVPPGEKEKTIKIKVDGKVLELTIKDGKIEIKEVSPEDLSAG [r14_403_TrROS_Hall] | 3.55 ± 0.1 kcal/mol | 2.93 ± 0.14 kcal/mol | 3.44 ± 0.13 kcal/mol |
| SAGGSAMLLIKITIETKDGEKYEIVVEAESEEEALAALKEKARELFPELSEEDVKIVDIEVYELEESAGGSA [r15_220_TrROS_Hall] | 4.25 ± 0.088 kcal/mol | 4.58 ± 0.25 kcal/mol | 4.29 ± 0.13 kcal/mol |
| SAGGSMTAPVKVLIKVPPNIPLSDIVKKLSAIPGIGAKPISYDPETGYALVDIGATDPEALKEAIGSAGGSA [r2_305_TrMRF] | 2 ± 0.029 kcal/mol | 1.67 ± 0.057 kcal/mol | 1.9 ± 0.057 kcal/mol |
| SAGGSAGGMKIVVEEVDEEKGYVRIRIEDPETKEEKEIVVKVKTPEEAEALAKKLAEAGYEVETSAGGSAGG [r6_796_TrROS_Hall] | 1.79 ± 0.028 kcal/mol | 1.27 ± 0.045 kcal/mol | 1.61 ± 0.087 kcal/mol |
| SAGMVIAKVTVKLPNGETKTFVIEAESPEELEEQIIKELEKEYGVSPEEFPIVEIKVEFYDPEKGGLLLSAG [r5_482_TrMRF] | 2.23 ± 0.033 kcal/mol | 2.13 ± 0.089 kcal/mol | 2.2 ± 0.11 kcal/mol |
| SAGGSAGGSAGGVAVPKEGIEEFISQLPPDTVVTLYDPETGKDIKVTVSNGKVTISPEGSAGGSAGGSAGGS [r10_137_JUSTAS] | 1.02 ± 0.12 kcal/mol | 1.29 ± 0.12 kcal/mol | 1.17 ± 0.12 kcal/mol |
| SAGGSAGGSAKVEPVGVDPKNLVVVYRFENFTVAVTYDPESGKVTVRITDPDGNVLEFELSSAGGSAGGSAG [r3_25_TrMRF] | 4.112 ± 0.041 kcal/mol | 2.24 ± 0.077 kcal/mol | 3.71 ± 0.086 kcal/mol |
| SAGGNWPMRIKIEDPGEEKTIPIPITKVEPNPPPGKLMIFWPDGWVLTFDPKNWRIKKIEPMPDPDEMSAGG [r13_636_TrROS] | 0.822 ± 0.13 kcal/mol | 0.942 ± 0.084 kcal/mol | 1.05 ± 0.37 kcal/mol |
